Test results published in PMC10515946 (bioRxiv, 2023).

Target: soluble monomeric 1059 gp120 (HIV-1 clone 1059_09.A4.1460 (clade B …, strain))
Test: ELISA

B1: N6 (CD4-binding site broadly neutralizing antibody) (antibody, V domains shown)
VH: RAHLVQSGTAMKKPGASVRVSCQTSGYTFTAHILFWFRQAPGRGLEWVGWIKPQYGAVNFGGGFRDRVTLTRDVYREIAYMDIRGLKPDDTAVYYCARDRSYGDSSWALDAWGQGTTVVVSA
VL: YIHVTQSPSSLSVSIGDRVTINCQTSQGVGSDLHWYQHKPGRAPKLLIHHTSSVEDGVPSRFSGSGFHTSFNLTISDLQADDIATYYCQVLQFFGRGSRLHIK
**Q.** Does B1 bind?
**A.** binds
